The text below walks through data of patent publication US20240239870A1 (published 2024).

Test [1] addresses T1, human PCSK9 (proprotein convertase subtilisin kexin type 9) (human, UniProt Q8NBP7 31-692, biotinylated in the BLI assay (site not stated)).
T1 construct: Immobilized directly (SPR), biotinylated on streptavidin tips (BLI), recombinant from baculovirus (FRET); also called hPCSK9
Description: ITC, 37 C.

Test [2] has as its target T1, human PCSK9 (proprotein convertase …). The test is described as follows: ITC, 37 C, average of 3 experiments. The protocol: Solution phase binding was measured in 25 mM HEPES, pH 7.41, 150 mM NaCl at 37° C.

T1 sequence (Q8NBP7 31-692 limits assumed): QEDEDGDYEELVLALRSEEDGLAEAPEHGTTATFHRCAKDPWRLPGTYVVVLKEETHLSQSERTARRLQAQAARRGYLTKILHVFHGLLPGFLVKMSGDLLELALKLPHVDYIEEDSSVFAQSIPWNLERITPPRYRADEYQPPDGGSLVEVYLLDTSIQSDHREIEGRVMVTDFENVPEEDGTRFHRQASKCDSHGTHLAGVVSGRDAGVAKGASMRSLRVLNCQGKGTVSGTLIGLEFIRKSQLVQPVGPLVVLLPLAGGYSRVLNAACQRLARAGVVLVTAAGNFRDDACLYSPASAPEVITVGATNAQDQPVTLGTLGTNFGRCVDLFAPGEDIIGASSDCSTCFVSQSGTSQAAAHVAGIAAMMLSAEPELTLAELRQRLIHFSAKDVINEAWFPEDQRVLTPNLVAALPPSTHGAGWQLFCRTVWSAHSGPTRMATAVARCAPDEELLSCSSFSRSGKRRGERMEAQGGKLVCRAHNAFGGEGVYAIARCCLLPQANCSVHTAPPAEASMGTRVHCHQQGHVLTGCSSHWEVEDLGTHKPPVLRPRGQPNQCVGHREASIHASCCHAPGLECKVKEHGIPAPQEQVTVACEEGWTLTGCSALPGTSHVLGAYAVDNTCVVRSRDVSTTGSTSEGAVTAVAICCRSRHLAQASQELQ

B1: anti-PCSK9 Adnectin 2013E01 (designed binder)
chain: MGVSDVPRDLEVVAATPTSLLISWVPPSDDYGYYRITYGETGGNSPVQEFTVPIGKGTATISGLKPGVDYTITVYAVEFPWPHAGYYHRPISINYRTEIDKPSQHHHHHH
notes: also called ATI001081
In the case of B1, in test [1], the ΔS is -45.4 cal/mol ° C.

B2: ATI001174 [2013E01-non His tagged Cys mut], pegylated (designed binder)
chain: MGVSDVPRDLEVVAATPTSLLISWVPPSDDYGYYRITYGETGGNSPVQEFTVPIGKGTATISGLKPGVDYTITVYAVEFPWPHAGYYHRPISINYRTEIEKPCQ
modifications: pegylated via the cysteine of the EIEKPCQ tail (asterisk in Table 5)
notes: PEGylated, non His tagged cysteine mutant of 2013E01; also called ATI1174
In turn, B2 displayed a ΔS in test [2] of -55.8 cal/mol ° C.
